This series concerns the target c-met receptor tyrosine kinase (native, on MM cell surface) (Homo sapiens) (UniProt P08581). Put plainly: flow cytometry cell binding. Conditions: MM.1S cells; library signal subtracted; 5 mM MgCl2; 1x PBS, 4.5 g/L glucose, 5 mM MgCl2, 0.1 mg/mL yeast tRNA, 1 mg/mL BSA, 4 C, 30 min; 3e5 cells in 200 uL; pH not stated. (In general: A flow cytometer gives signals particle by particle.)

Sequence of c-met receptor tyrosine kinase (native, on MM cell surface) (Homo sapiens) (P08581 25-1390): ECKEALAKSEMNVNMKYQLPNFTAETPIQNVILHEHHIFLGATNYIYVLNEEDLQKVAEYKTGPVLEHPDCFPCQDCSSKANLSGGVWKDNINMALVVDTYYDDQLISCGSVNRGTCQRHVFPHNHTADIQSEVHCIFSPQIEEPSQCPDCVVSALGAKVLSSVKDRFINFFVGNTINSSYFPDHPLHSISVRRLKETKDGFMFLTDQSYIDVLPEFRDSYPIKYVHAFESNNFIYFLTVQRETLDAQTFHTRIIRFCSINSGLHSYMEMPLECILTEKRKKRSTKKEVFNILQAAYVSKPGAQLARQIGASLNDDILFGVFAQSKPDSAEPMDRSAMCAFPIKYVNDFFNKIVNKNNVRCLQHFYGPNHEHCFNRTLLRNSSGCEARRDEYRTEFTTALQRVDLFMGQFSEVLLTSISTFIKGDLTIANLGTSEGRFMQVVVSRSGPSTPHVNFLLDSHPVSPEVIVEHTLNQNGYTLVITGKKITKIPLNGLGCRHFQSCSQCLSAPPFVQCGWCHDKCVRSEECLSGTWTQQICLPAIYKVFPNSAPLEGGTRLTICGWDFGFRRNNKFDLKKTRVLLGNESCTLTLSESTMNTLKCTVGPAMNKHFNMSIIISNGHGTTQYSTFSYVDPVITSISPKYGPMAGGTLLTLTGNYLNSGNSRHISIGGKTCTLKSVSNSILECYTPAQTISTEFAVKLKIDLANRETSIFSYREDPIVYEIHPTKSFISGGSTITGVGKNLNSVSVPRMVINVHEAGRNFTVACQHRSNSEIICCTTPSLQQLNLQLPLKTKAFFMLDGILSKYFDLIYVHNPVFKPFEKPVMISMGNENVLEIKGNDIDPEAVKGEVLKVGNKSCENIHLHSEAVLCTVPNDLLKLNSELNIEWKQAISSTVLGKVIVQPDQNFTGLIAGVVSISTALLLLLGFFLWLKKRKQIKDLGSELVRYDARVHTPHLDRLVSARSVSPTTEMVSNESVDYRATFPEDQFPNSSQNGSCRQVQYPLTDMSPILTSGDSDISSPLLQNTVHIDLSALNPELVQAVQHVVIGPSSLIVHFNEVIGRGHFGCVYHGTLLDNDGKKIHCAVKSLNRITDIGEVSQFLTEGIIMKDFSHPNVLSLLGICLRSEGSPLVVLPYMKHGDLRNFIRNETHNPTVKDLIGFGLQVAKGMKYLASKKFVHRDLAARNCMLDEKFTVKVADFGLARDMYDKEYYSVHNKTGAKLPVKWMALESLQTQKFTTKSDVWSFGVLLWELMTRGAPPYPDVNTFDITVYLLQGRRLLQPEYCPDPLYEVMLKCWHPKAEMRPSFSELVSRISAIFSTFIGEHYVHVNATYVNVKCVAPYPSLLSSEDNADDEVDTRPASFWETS

The Kd is a measure of binding affinity in units of concentration. High values mean lower affinity, low ones higher affinity. “ATCAGGCTGGATGGTAGCTCGGTCGGGGTGGGTGGGTTGGCAAGTCTGAT [SL1]” displayed a Kd of 136 nM. In other words, the sub-micromolar range.

Values taken from PMC6237600.
